Source: US20240417475A1 (AFFIMED, published 2024)

Experiments:
[1] = molecular target: CD16A on in vitro differentiated human macrophages (human, UniProt P08637 17-254); assay: cell-based or functional assay
[2] = molecular target: T1, human FOLR1 endogenously expressed on tumor cell lines (human, UniProt P15328 25-234); assay: flow cytometry on HCC-827 cells, 37 C, one-site fit of MFI, mean
T1 construct: whole, on cells; also called FOLR1-positive tumor cell lines; FOLR1+ target cells
Method: (§1) Cells were collected and centrifuged at 400×g, 5 min, 4° C. Cell pellets were resuspended in FACS buffer (PBS (Invitrogen, cat.: 392-0434) containing 2% h.i. FCS (Invitrogen, cat.: 10500-064), and 0.1% sodium azide (Sigma, cat.: S8032)) at 1-5×10⁶ cells/mL. 100 μL/well of the cell suspension were transferred into U-shaped, 96-well micro plates (0.1-0.5×10⁶ cells per well), cells were pelleted at 400×g, 5 min, 4° C., and resuspended in 100 μL/well of serial dilutions of the indicated antibodies in FACS buffer. After 40-50 min incubation at 37° C., cells were washed 3-times with ice-cold FACS buffer. […] After the final incubation step, cells were washed 2-times with ice-cold FACS buffer, and the cell pellet was resuspended in 100 μL FACS buffer. Fluorescence intensities of >1×10⁴ viable cells were analyzed by flow cytometry and the median fluorescence intensity (MFI) was determined for each sample.
(§2) Equilibrium dissociation constants (KD) of antibody binding, mean and standard deviation (SD) were calculated by plotting MFI values and fitting a non-linear regression model for one-site binding to hyperbolic dose-response curves using GraphPad Prism for Windows (v9; GraphPad Software; La Jolla California USA).
(§3) Specific antibody binding capacity (SABC) as a marker for FOLR1 expression level on cells was determined on all tumor cell lines using QIFIKIT.

[3] = molecular target: T1, human FOLR1 endogenously expressed on …; assay: flow cytometry on IGROV-1 cells, 37 C, one-site fit of MFI, mean
Method: as §1, §2, §3

[4] = molecular target: T1, human FOLR1 endogenously expressed on …; assay: flow cytometry on OVCAR-3 cells, 37 C, one-site fit of MFI, mean
Method: as §1, §2, §3

[5] = molecular target: T1, human FOLR1 endogenously expressed on …; assay: flow cytometry on NCI-H2110 cells, 37 C, one-site fit of MFI, mean
Method: as §1, §2, §3

[6] = molecular target: T2, human FOLR1-mFc_Avi-tag (sAg_303) (human, UniProt P15328 25-234, limits assumed); assay: ELISA, plate coated with human FOLR1-mFc_Avi-tag (sAg_303), one-site fit, mean of 3
T2 construct: also called human FOLR1 (sAg_303); recombinant human FOLR1
Method: (§4) 96 well ELISA plates (F96 Maxisorp Immuno Plate, Nunc, cat: 442404) were coated overnight at 4° C. with 50 μL/well of 10 μg/mL human FOLR1-mFc_Avi-tag in DPBS. After overnight incubation plates were washed three times with PBST and blocked with Candor Blocking solution for 2 h at RT under mild agitation. […] After incubation with the secondary antibodies, the plate was washed five times with PBST and one time with PBS. Chromogenic substrate (1:1 mixture of TMB:TMBB, SeraCare cat: 5120-0048 and 5120-0037) was added and the reaction was stopped by addition of an equal volume of 0.5 M H₂SO₄ after sufficient color development. Absorbance at 450 nm was measured in an ELISA plate reader (Sunrise Absorbance Reader 901000833, Schoeller Instruments). The absorbance values were corrected by subtracting the background of the respective secondary antibody and fitted with a one site binding function (hyperbola) using GraphPad Prism (version 9.3.1. GraphPad Software, La Jolla California USA). KD is the concentration of ligand required to reach half-maximal binding.

[7] = molecular target: T2, human FOLR1-mFc_Avi-tag (sAg_303); assay: ELISA, plate coated with human FOLR1-mFc_Avi-tag, anti-human Fab-HRP detection, A450
Method: as §4

[8] = molecular target: T1, human FOLR1 endogenously expressed on …; assay: flow cytometry on IGROV-1 cells (FOLR1 high) at 37 °C, FITC anti-human IgG detection
Method: as §1

[9] = molecular target: T1, human FOLR1 endogenously expressed on …; assay: flow cytometry on OVCAR-3 cells (FOLR1 medium) at 37 °C, FITC anti-human IgG detection
Method: as §1

[10] = molecular target: T3, cynomolgus CD16 expressed on CHO cells (cAg_36) (cynomolgus, UniProt Q8SPW2 17-254); assay: flow cytometry on cyCD16-transfected CHO cells (cAg_36), on ice, FITC goat anti-human IgG detection
T3 construct: whole, on cells; also called cyCD16
Method: (§5) After washing in FACS buffer, cells were incubated in 50 μL FACS buffer without antibodies or with titrated antibodies starting at a concentration of 1000 nM followed by elven 3-fold serial dilutions for 40-50 min on ice in the dark. […] After washing, binding was measured by flow cytometry and mean fluorescence intensities (MFI) of cell samples were calculated and corrected for background staining using control cells stained with secondary antibodies only.

[11] = molecular target: T4, human CD16A (158F) expressed on CHO cells (cAg_34) (human, UniProt P08637 17-254); assay: flow cytometry on huCD16A (158F)-transfected CHO cells (cAg_34), on ice, FITC goat anti-human IgG detection
T4 construct: also called huCD16A-transfected CHO cells
Method: as §5

[12] = molecular target: T5, human CD16A (158V) expressed on CHO cells (cAg_35) (human, UniProt P08637 17-254); assay: flow cytometry on huCD16A (158V)-transfected CHO cells (printed sAg_35), on ice, FITC goat anti-human IgG detection
T5 construct: also called huCD16A (158V)
Method: as §5

[13] = molecular target: CD16A endogenously expressed on primary human NK cells (human, UniProt P08637 17-254); assay: flow cytometry on primary human NK cells at 37 °C, biotinylated antibody, streptavidin-FITC, without polyclonal human IgG
Method: Frozen NK cells were thawed, and viability was determined with trypan blue (Sigma-Aldrich, cat.: T8154). Cells have been centrifuged at 400×g, 5 min, 4° C. Cell pellets were resuspended in FACS buffer PBS (Invitrogen, cat.: 392-0434) containing 2% h.i. FCS (Invitrogen, cat.: 10500-064), and 0.1% sodium azide (Sigma, cat.: S8032) at 2×10⁶ cells/mL. 100 μL/well of the cell suspension were transferred into U-shaped 96 well plates, cells were pelleted at 400×g, 5 min. 4° C., and resuspended in 50 μL/well of diluted antibody constructs. […] After 40-50 minutes' incubation at 37° C., cells were washed 3-times with ice-cold FACS buffer. […] After the final incubation step, cells were washed 2-times with ice-cold FACS buffer, and the cell pellet was resuspended in 50 μL FACS buffer. Fluorescence intensity of >1×10⁴ viable cells was analyzed by flow cytometry and the median fluorescence intensity (MFI) was determined for each sample.

[14] = molecular target: T4, human CD16A (158F) expressed on CHO …; assay: flow cytometry on huCD16A-transfected CHO cells (cAg_34), one-site fit of MFI, mean of 3
Method: (§6) To analyze binding of different antibody constructs to CHO cells transfected with human CD16A (cAg_34), relative to CD16 expression by flow cytometry, 1-2×10⁵ were resuspended in 100 μL FACS buffer (PBS (Invitrogen, cat.: 14190-169) containing 2% heat-inactivated FCS (Invitrogen, cat.: 10270-106), and 0.1% sodium azide (Roth, Karlsruhe, Germany, cat.: A1430.0100)) in round-bottom 96-well microtiter plates. After washing in FACS buffer, cells were incubated in 50 μL FACS buffer without antibodies or with titrated antibodies starting at a concentration of 100 μg/mL followed by ten 5-fold serial dilutions for 30 min on ice in the dark. […] After washing, binding was measured by flow cytometry and mean fluorescence intensities (MFI) of cell samples were calculated and corrected for background staining using control cells stained with secondary antibodies only.
(§7) Equilibrium dissociation constants (KD) of antibody binding were calculated by plotting MFI values and fitting a non-linear regression model for one-site binding to hyperbolic dose-response curves using GraphPad Prism.

[15] = molecular target: T4, human CD16A (158F) expressed on CHO …; assay: flow cytometry on huCD16A-transfected CHO cells (cAg_34), one-site fit of MFI, experiment 1
Method: as §6, §7

[16] = molecular target: T4, human CD16A (158F) expressed on CHO …; assay: flow cytometry on huCD16A-transfected CHO cells (cAg_34), one-site fit of MFI, experiment 2
Method: as §6, §7

[17] = molecular target: T4, human CD16A (158F) expressed on CHO …; assay: flow cytometry on huCD16A-transfected CHO cells (cAg_34), one-site fit of MFI, experiment 3
Method: as §6, §7

[18] = molecular target: T4, human CD16A (158F) expressed on CHO …; assay: flow cytometry on huCD16A-transfected CHO cells, on ice, APC goat anti-human IgG detection
Method: as §6

T4 sequence (P08637 17-254 limits assumed): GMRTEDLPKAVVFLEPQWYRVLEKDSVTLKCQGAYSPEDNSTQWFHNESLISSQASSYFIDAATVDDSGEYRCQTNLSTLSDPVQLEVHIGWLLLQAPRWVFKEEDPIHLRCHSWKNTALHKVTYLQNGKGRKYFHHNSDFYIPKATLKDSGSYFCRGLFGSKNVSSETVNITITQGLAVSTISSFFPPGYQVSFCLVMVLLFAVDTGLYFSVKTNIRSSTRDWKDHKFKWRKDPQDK
Chain of CD16A on in vitro differentiated human macrophages (P08637 17-254 limits assumed): as above
T1 sequence (P15328 25-234): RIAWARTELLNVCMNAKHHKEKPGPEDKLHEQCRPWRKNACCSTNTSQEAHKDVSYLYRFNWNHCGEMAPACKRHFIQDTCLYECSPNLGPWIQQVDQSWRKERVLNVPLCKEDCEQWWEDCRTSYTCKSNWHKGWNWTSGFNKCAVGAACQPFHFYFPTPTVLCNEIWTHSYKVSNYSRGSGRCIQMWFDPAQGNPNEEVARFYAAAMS
T2 sequence (P15328 25-234 limits assumed): as the sequence (P15328 25-234) above
Chain of CD16A endogenously expressed on primary human NK cells (P08637 17-254 limits assumed): as the sequence (P08637 17-254 limits assumed) above
T5 sequence (P08637 17-254 F176V limits assumed): as the sequence (P08637 17-254 limits assumed) above, with F160V counted along it
T3 sequence (Q8SPW2 17-254): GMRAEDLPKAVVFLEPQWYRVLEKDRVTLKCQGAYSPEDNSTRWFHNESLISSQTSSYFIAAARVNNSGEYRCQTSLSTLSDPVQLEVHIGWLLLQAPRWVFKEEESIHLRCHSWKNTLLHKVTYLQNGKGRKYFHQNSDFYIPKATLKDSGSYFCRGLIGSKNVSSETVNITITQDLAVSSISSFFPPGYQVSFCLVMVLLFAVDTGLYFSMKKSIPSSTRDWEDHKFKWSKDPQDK

B1: scFv-IgAb_162 (FOLR1×RSV) (bispecific antibody)
heavy: EVQLVESGGGVVQPGRSLRLSCSASGFTFSGYGLSWVRQAPGKGLEWVAMISSGGSYTYYADSVKGRFAISRDNAKNTLFLQMDSLRPEDTGVYFCARHGDDPAWFAYWGQGTPVTVSSASTKGPSVFPLAPSSKSTSGGTAALGCLVKDYFPEPVTVSWNSGALTSGVHTFPAVLQSSGLYSLSSVVTVPSSSLGTQTYICNVNHKPSNTKVDKKVEPKSCDKTHTCPPCPAPEFEGGPSVFLFPPKPKDTLMISRTPEVTCVVVAVSHEDPEVKFNWYVDGVEVHNAKTKPREEQYNSTYRVVSVLTVLHQDWLNGKEYKCKVSNKALPAPIEKTISKAKGQPREPQVYTLPPSREEMTKNQVSLTCLVKGFYPSDIAVEWESNGQPENNYKTTPPVLDSDGSFFLYSKLTVDKSRWQQGNVFSCSVMHEALHNHYTQKSLSLSPGGGGGSGGGGSQVTLRESGPALVKPTQTLTLTCTFSGFSLSTAGMSVGWIRQPPGKALEWLADIWWDDKKHYNPSLKDRLTISKDTSKNQVVLKVTNMDPADTATYYCARDMIFNFYFDVWGQGTTVTVSSGGSGGSGGSGGSGGSGGSDIQMTQSPSTLSASVGDRVTITCSASSRVGYMHWYQQKPGKAPKLLIYDTSKLASGVPSRFSGSGSGTEFTLTISSLQPDDFATYYCFQGSGYPFTFGGGTKVEIK
light: DIQLTQSPSSLSASVGDRVTITCSVSSSISSNNLHWYQQKPGKAPKPWIYGTSNLASGVPSRFSGSGSGTDYTFTISSLQPEDIATYYCQQWSSYPYMYTFGQGTKVEIKRTVAAPSVFIFPPSDEQLKSGTASVVCLLNNFYPREAKVQWKVDNALQSGNSQESVTEQDSKDSTYSLSSTLTLSKADYEKHKVYACEVTHQGLSSPVTKSFNRGEC
notes: also called FOLR1/RSV scFv-IgAb_162; FOLR1×RSV(NIST); copies: 2 + 2
Q: Which results are given for B1?
A: Phagocytosis [%], 4 h ADCP, DK-MG cells [1]: 0%; Phagocytosis [%], 4 h ADCP, HCC-78 cells [1]: 0%; Phagocytosis [%], 4 h ADCP, HeLa cells [1]: 0%; Kd [2]: 3.7 nM; Kd [3]: 5.2 nM; Kd [4]: 2.5 nM; Kd [5]: 3 nM; Kd [6]: 0.06 nM; EC50 (read off the curve) [7]: ~0.05 nM; EC50 (read off the curve) [8]: ~4 nM; EC50 (read off the curve) [9]: ~2 nM; binding result [10]: no binding (tested: 1000 nM); binding result [11]: no binding (tested: 1000 nM); binding result [12]: no binding (tested: 1000 nM); binding result [13]: no binding (tested: about 500 nM)

B2: scFv-IgAb_268 (CD123-1×CD16a1) (bispecific antibody)
heavy: QVQLQQSGAEVKKPGASVKVSCKASGYTFTDYYMKWVKQSHGKSLEWMGDIIPSNGATFYNQKFKGKATLTVDRSTSTAYMELSSLRSEDTAVYYCARSHLLRASWFAYWGQGTLVTVSSASTKGPSVFPLAPSSKSTSGGTAALGCLVKDYFPEPVTVSWNSGALTSGVHTFPAVLQSSGLYSLSSVVTVPSSSLGTQTYICNVNHKPSNTKVDKKVEPKSCDKTHTCPPCPAPEFEGGPSVFLFPPKPKDTLMISRTPEVTCVVVAVSHEDPEVKFNWYVDGVEVHNAKTKPREEQYNSTYRVVSVLTVLHQDWLNGKEYKCKVSNKALPAPIEKTISKAKGQPREPQVYTLPPSREEMTKNQVSLTCLVKGFYPSDIAVEWESNGQPENNYKTTPPVLDSDGSFFLYSKLTVDKSRWQQGNVFSCSVMHEALHNHYTQKSLSLSPGGGGGSGGGGSGGGGSGGGGSGGGGSGGGGSSYELTQPLSVSVALGQTARITCGGNNIGSKSVHWYQQKPGQAPVLVIYQDKKRPSGIPERFSGSNSGNTATLTISRAQAGDEADYYCQVWDDYIVLFGCGTKLTVLGGSGGSGGSGGSGGSGGSGGSQVQLVQSGAEVKKPGASVKVSCKASGYTFTNYYMQWVRQAPGQCLEWMGIINPSGGVTSYAQKFQGRVTMTRDTSTSTVYMELSSLRSEDTAVYYCARGSAYYYDFADYWGQGTLVTVSS
light: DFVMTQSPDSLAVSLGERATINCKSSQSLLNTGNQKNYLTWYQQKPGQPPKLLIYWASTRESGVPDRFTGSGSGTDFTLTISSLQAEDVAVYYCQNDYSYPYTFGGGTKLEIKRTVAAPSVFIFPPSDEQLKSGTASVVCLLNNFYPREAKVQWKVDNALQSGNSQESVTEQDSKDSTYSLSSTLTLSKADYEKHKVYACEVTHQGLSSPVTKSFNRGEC
notes: also called AFM28; CD123×CD16A scFv-IgAb_268
Q: For B2, which Kd [14] is on record?
A: 16.3 nM

Q: And the Kd [15]?
A: 17.7 nM

Q: What about the Kd [16] of the same binder?
A: 7.8 nM

Q: What about the Kd [17] of the same binder?
A: 23.5 nM

Q: And the “EC50 (read off the curve)” value [18]?
A: ~8 nM
